Measurements published in patent US20250325680A1, “HIGH-PERMEABILITY PROTEIN OR POLYPEPTIDE CONJUGATE AND USE THEREOF” (Hangzhou Tito Biotechnology Partnership Enterprise ( …, priority 2023, published 2025).

Legend:
CT26 tumor spheres = test: Permeation in multicellular tumor spheres; assay type: cell-based; settings: BSA 20 μg/mL, 2 h incubation
Description: The permeability of albumin and a conjugate BSA-OPDMA thereof was verified with multicellular tumor spheres. 1.0 mL of DMEM and the prepared CT26 tumor spheres were added to a confocal imaging dish, and then 20 μL of ^Cy5BSA-OPDMA or ^Cy5BSA was added (where a concentration of BSA was 20 μg/mL). After being incubated for 2 h, tumor spheres were subjected to laser scanning confocal microscopy imaging every 20 μm along a Z-axis. […] Moreover, the more the OPDMA bonded, the stronger the promotion on the permeability of BSA. […] OPDMA with a molecular weight of 10 k could more efficiently promote the penetration of ^Cy5BSA than OPDMA with a molecular weight of 5 k. This conclusion was further confirmed by the quantitative fluorescence data in FIG. 13.

[1] = Intraocular permeation experiment after eye-dropping administration; assay type: in vivo; settings: mouse, 4 h, laser confocal imaging of eyeball sections
Description: 6.6 mg of BSA ([…]) was dissolved in 1 mL of PBS at pH 7.4, 66 μg of a fluorescent dye Cy5-NHS was added, and stirring was conducted for 6 h at room temperature. Ultrafiltration-washing was repeated multiple times to produce fluorescently-labeled ^Cy5BSA. The conjugate ^Cy5BSA-OPDMA and other protein conjugates were labeled by the same method.
Upper and lower eyelids of each mouse were gently pulled open with a cotton swab. Solutions of ^Cy5BSA and ^Cy5BSA-OPDMA in PBS each were dropped to a conjunctival sac of a mouse, and a few seconds later, eyelids were slowly closed. At 4 h after the eye-dropping administration, eyeballs were immediately collected, washed three times with PBS, fixed overnight in an FAS eyeball fixative solution, and then transferred to a 30% sucrose solution for dehydration. When sank to a bottom of the solution, eyeballs were carefully taken out, embedded with an optimal cutting temperature (OCT) embedding medium, and sectioned by a freezing microtome to produce 10 μm-thick eyeball sections. The eyeball sections were stained with a 4′,6-diamidino-2-phenylindole (DAPI) dye, and finally the fluorescence distributions of each solution in eyeballs and retinas were observed under a laser scanning confocal microscope. The fluorescence distribution inside a retina of a mouse eyeball was analyzed with Image J.

[2] = Skin permeation experiment; assay type: in vivo, C57BL/6 mice; settings: mouse dorsal skin, 4 h after administration, laser confocal
Description: C57BL/6 mice each with a body weight of 20 g were selected and randomly divided into four groups. The hair on the back of each mouse was removed with a depilatory cream. After 24 h of raising, a silicone diffusion cell was fixed on the back, and Cy5-labeled ^Cy5BSA and ^Cy5BSA-OPDMA were added at equal amounts. 4 h after the administration, the dorsal skin of each mouse was carefully collected, rinsed 3 times with PBS, and sectioned by a freezing microtome to produce 20 μm-thick skin sections. A skin permeation effect of each solution was observed under a laser scanning confocal microscope.

laser-induced CNV model = test: Laser-induced choroidal neovascularization (CNV) model, eye drops; assay type: in vivo, C57BL/6J mice; settings: eye drops 2 μL, 10 mg/ml of aflibercept, four times a day for 7 d, day 7
Excerpt: 40 female C57BL/6J mice at 6 to 8 weeks were selected, and the anterior segments of both eyes and the fundus were examined to be normal before the experiment. An unilateral eye of each mouse was selected and subjected to laser photocoagulation to establish a CNV model, where a corresponding contralateral eye was not treated. Then treated mice were randomly divided into a PBS group, an aflibercept-OPDMA conjugate group, an OPDMA+aflibercept mixture group, and an aflibercept intravitreal injection group. Immediately after the laser photocoagulation, mice in each group were administered with eye drops at a dose of (2 μL, 10 mg/ml of aflibercept) four times a day consecutively for 7 d. For the injection group, a dose was 10 μg/mouse, and the injection was conducted merely once during the experiment. After laser photocoagulation, on day 7 post-modeling, choroidal flat mounts were prepared from the experimental eyes. The flat mounts were subjected to antibody staining using IB4 and imaged under a fluorescence microscope. Thee neovascularization area was measured using image J software. These indices were used to assess the treatment efficacy of each group.

Substance	permeation in tumor spheres (fluorescence) (CT26 tumor spheres)	intraocular permeation (fluorescence distribution in eyeballs and retinas) [1]	skin permeation effect (fluorescence in skin sections) [2]	therapeutic effect on CNV (neovascularization area) (laser-induced CNV model)	therapeutic effect on CNV (neovascularization area) (laser-induced CNV model; listed as aflibercept-OPDMA conjugate)
^Cy5BSA-OPDMA: Cy5-labeled conjugate of BSA with OPDMA; chain number and weight not stated in the text	presented a strong red fluorescence within tumor spheres	could penetrate into intraocular cells, especially a retina in a posterior segment of an eye	the fluorescence could penetrate into the deep skin	–	–
^Cy5BSA: BSA fluorescently labeled with Cy5-NHS [reference compound]	could only reach the edges of tumor spheres	only adhered to a surface of an eyeball	faint red fluorescence was observed merely in a surface layer of the skin	–	–
aflibercept: the protein (aflibercept) itself	–	–	cannot permeate into the skin	–	–
aflibercept-OPDMA: conjugate of aflibercept with tertiary amine oxide polymer OPDMA	–	had a similar intraocular permeation ability	–	could indeed exert a therapeutic effect after being dropped to eyes	prominent therapeutic effect
